Target: the molecule itself
Experiment: cross-linking

B1: HpUreI, the urea channel from Helicobacter pylori (natural protein)
chain: MLGLVLLYVGIVLISNGICGLTKVDPKSTAVMNFFVGGLSIICNIVVITYSALHPTAPVEGAEDIAQVSHHLTSFYGPATGLLFGFTYLYAAINHTFGLDWRPYSWYSLFVAINTIPAAILSHYSDMLDDHKVLGITEGDWWAIIWLAWGVLWLTAFIENILKIPLGKFTPWLAIIEGILTAWIPAWLLFIQHWV
With B1 the “stoichiometry N” value was 3.

Source: PMC5497592 (Biochemistry, 2011)
